# Experimental data reported in patent publication US20030113711A1, “Protein kinase peptide substrate determination using peptide libraries” (priority 2001, published 2003).
# Key:
# Experiment in all cases: Kinetic evaluation of peptide substrates, varying peptide at fixed ATP (phosphocellulose filter, [γ-33P]ATP)
# Type in all cases: biochemical
# Conditions in all cases: other: ErbB-2; Km for peptide; ATP concentration >10 × Km (200 μM ATP); pH 7.5; 23.0 °C
# [1] = system: CC[C@H](C)[C@H](NC(=O)[C@H](CCC(=O)O)NC(=O)[C@H](CCC(=O)O)NC(=O)[C@H](Cc1c[nH]cn1)NC(=O)[C@H](C)NC(=O)[C@H](CCCNC(=N)N)NC(=O)CCCCCNC(=O)CCCC[C@@H]1SC[C@@H]2NC(=O)N[C@@H]21)C(=O)N[C@@H](Cc1ccc(O)cc1)C(=O)N[C@@H](Cc1c[nH]cn1)C(=O)N[C@@H](Cc1ccccc1)C(=O)N[C@@H](Cc1ccccc1)C(=O)N[C@@H](Cc1ccccc1)C(=O)N[C@@H](C)C(=O)N[C@@H](CCCCN)C(=O)N[C@@H](CCCCN)C(=O)N[C@@H](CCCCN)C(N)=O
# Procedure: (§1) Peptide sequences identified as preferred substrates for ErbB-2 using the methods described in Laboratory Example 3 were synthesized. The kcat and Km values for each peptide were determined as follows, using the kinases ErbB-2, ErbB-4, and EGFR.
# (§2) Reactions were performed in 96-well polystyrene round bottom plates in a final volume of 45 μL. Reaction mixtures contained 50 mM MOPS, pH 7.5, 10 mM MnCl2, 1 mM dithiothreitol (DTT), 200 μM ATP, 1.0 μCi [γ-^33P] ATP, and varying concentrations of peptide. The reaction was initiated by adding the purified kinase of interest and halted after 10 minutes at 23° C. (room temperature) by adding 45 μL of 0.5% phosphoric acid in water. A 75 μL aliquot of the halted reaction mixture was then transferred to MAPH phosphocellulose filter plates (Millipore, Bedford, Mass.). The plates were filtered three times with 0.2 mL of 0.5 percent phosphoric acid. Scintillation cocktail (50 μL) was added to each well, and the plate was analyzed by counting in a Packard TOPCOUNT® scintillation counter (Packard Instrument Co., Meriden, Conn.). In these assays, the concentration of ATP was greater than ten-fold higher than the Km for ATP, which permitted the kinetic data to be treated as a pseudo-first-order reaction with varying peptide concentration. All experiments were performed in quadruplicate and the average value for each data point was analyzed. The Km and Vmax values were calculated by fitting the data to the Henri-Michaelis-Menten equation by non-linear regression using SIGMAPLOT® (SPSS Science, Chicago, Ill.). kcat values were calculated using the Vmax value, and are based on the protein concentration of the enzyme preparation and an estimate of purity determined from an evaluation of a Coomassie Blue stained SDS-polyacrylamide gel.
# [2] = system: CC[C@H](C)[C@H](NC(=O)[C@H](CCC(=O)O)NC(=O)[C@H](Cc1c[nH]cn1)NC(=O)[C@H](Cc1c[nH]cn1)NC(=O)[C@H](C)NC(=O)[C@H](CCCNC(=N)N)NC(=O)CCCCCNC(=O)CCCC[C@@H]1SC[C@@H]2NC(=O)N[C@@H]21)C(=O)N[C@@H](Cc1ccc(O)cc1)C(=O)N[C@@H](Cc1c[nH]cn1)C(=O)N[C@@H](Cc1ccccc1)C(=O)N[C@@H](Cc1ccccc1)C(=O)N[C@@H](Cc1ccccc1)C(=O)N[C@@H](C)C(=O)N[C@@H](CCCCN)C(=O)N[C@@H](CCCCN)C(=O)N[C@@H](CCCCN)C(N)=O
# Procedure: as §1, §2
# [3] = system: CC[C@H](C)[C@H](NC(=O)[C@H](Cc1ccccc1)NC(=O)[C@H](Cc1c[nH]cn1)NC(=O)[C@H](Cc1ccc(O)cc1)NC(=O)[C@H](CCC(=O)O)NC(=O)[C@H](CCC(=O)O)NC(=O)[C@H](CCC(=O)O)NC(=O)[C@H](Cc1c[nH]cn1)NC(=O)[C@H](C)NC(=O)[C@H](CCCNC(=N)N)NC(=O)CCCCCNC(=O)CCCC[C@@H]1SC[C@@H]2NC(=O)N[C@@H]21)C(=O)N[C@@H](Cc1ccccc1)C(=O)N[C@@H](C)C(=O)N[C@@H](CCCCN)C(=O)N[C@@H](CCCCN)C(=O)N[C@@H](CCCCN)C(N)=O
# Procedure: as §1, §2
# [4] = system: C[C@H](NC(=O)[C@H](CCCNC(=N)N)NC(=O)CCCCCNC(=O)CCCC[C@@H]1SC[C@@H]2NC(=O)N[C@@H]21)C(=O)N[C@@H](Cc1c[nH]cn1)C(=O)N[C@@H](CCC(=O)O)C(=O)N[C@@H](CCC(=O)O)C(=O)N[C@@H](CCC(=O)O)C(=O)N[C@@H](Cc1ccc(O)cc1)C(=O)N[C@@H](Cc1c[nH]cn1)C(=O)N[C@@H](Cc1ccccc1)C(=O)N[C@@H](Cc1ccccc1)C(=O)N[C@@H](Cc1ccccc1)C(=O)N[C@@H](C)C(=O)N[C@@H](CCCCN)C(=O)N[C@@H](CCCCN)C(=O)N[C@@H](CCCCN)C(N)=O
# Procedure: as §1, §2
# [5] = system: C[C@H](NC(=O)[C@H](CCCNC(=N)N)NC(=O)CCCCCNC(=O)CCCC[C@@H]1SC[C@@H]2NC(=O)N[C@@H]21)C(=O)N[C@@H](Cc1c[nH]cn1)C(=O)N[C@@H](Cc1c[nH]cn1)C(=O)N[C@@H](CCC(=O)O)C(=O)N[C@@H](CCC(=O)O)C(=O)N[C@@H](Cc1ccc(O)cc1)C(=O)N[C@@H](Cc1c[nH]cn1)C(=O)N[C@@H](Cc1ccccc1)C(=O)N[C@@H](Cc1ccccc1)C(=O)N[C@@H](Cc1ccccc1)C(=O)N[C@@H](C)C(=O)N[C@@H](CCCCN)C(=O)N[C@@H](CCCCN)C(=O)N[C@@H](CCCCN)C(N)=O
# Procedure: as §1, §2
substance,measurement,setting,value
ErbB-2 (Homo sapiens),Km,[1],11.4 µM
same,kcat,[1],0.0967 s⁻¹
same,kcat/Km,[1],8500 M⁻¹ s⁻¹
same,Km,[2],66.6 µM
same,kcat,[2],0.173 s⁻¹
same,kcat/Km,[2],2670 M⁻¹ s⁻¹
same,Km,[3],8.6 µM
same,kcat,[3],0.0333 s⁻¹
same,kcat/Km,[3],3830 M⁻¹ s⁻¹
same,Km,[4],6.8 µM
same,kcat,[4],0.0127 s⁻¹
same,kcat/Km,[4],1830 M⁻¹ s⁻¹
same,Km,[5],14.7 µM
same,kcat,[5],0.09 s⁻¹
same,kcat/Km,[5],6170 M⁻¹ s⁻¹
